Source: publication PMC3431625 (The Journal of Biological Chemistry, 2012)

Tests used:
Collagen type I = Collagen type I (UniProt P02453;P02465); assay: ELISA
[1] = target: Mouse laminin isolated from Engelbreth-Holm-Swarm mouse sarcoma (mouse, UniProt P19137;P02469;P02468); assay: ELISA

Chain of Collagen type I (P02453 162-1217, chain 1 of 2): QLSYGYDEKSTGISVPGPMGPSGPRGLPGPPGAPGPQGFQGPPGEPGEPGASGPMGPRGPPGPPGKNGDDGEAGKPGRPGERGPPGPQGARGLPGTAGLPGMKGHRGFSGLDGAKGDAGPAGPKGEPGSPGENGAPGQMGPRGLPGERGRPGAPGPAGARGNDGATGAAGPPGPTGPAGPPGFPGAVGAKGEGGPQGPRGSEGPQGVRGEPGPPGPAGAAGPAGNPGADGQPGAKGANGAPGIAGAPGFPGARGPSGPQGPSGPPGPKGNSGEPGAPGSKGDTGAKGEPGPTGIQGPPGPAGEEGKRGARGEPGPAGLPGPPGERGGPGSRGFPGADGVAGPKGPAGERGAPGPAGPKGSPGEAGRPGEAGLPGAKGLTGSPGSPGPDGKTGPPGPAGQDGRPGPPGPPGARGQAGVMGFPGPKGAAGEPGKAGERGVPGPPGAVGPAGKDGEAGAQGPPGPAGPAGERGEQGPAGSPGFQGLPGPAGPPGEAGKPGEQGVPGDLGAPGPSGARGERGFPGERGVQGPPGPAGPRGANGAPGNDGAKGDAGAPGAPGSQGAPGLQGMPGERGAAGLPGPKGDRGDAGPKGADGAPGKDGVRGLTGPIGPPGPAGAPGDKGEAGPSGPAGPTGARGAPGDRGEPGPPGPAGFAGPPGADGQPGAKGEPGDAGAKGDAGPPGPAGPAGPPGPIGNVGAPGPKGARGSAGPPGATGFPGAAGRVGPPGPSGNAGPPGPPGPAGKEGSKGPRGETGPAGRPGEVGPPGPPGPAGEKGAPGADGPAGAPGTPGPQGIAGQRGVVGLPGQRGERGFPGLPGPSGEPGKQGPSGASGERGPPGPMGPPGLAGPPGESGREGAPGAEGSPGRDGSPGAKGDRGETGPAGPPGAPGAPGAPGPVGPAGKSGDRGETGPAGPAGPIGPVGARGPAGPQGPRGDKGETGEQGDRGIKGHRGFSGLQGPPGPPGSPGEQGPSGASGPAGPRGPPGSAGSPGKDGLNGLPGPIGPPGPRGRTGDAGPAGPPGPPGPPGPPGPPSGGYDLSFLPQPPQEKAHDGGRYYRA
Chain of Collagen type I (P02465 80-1117, chain 2 of 2): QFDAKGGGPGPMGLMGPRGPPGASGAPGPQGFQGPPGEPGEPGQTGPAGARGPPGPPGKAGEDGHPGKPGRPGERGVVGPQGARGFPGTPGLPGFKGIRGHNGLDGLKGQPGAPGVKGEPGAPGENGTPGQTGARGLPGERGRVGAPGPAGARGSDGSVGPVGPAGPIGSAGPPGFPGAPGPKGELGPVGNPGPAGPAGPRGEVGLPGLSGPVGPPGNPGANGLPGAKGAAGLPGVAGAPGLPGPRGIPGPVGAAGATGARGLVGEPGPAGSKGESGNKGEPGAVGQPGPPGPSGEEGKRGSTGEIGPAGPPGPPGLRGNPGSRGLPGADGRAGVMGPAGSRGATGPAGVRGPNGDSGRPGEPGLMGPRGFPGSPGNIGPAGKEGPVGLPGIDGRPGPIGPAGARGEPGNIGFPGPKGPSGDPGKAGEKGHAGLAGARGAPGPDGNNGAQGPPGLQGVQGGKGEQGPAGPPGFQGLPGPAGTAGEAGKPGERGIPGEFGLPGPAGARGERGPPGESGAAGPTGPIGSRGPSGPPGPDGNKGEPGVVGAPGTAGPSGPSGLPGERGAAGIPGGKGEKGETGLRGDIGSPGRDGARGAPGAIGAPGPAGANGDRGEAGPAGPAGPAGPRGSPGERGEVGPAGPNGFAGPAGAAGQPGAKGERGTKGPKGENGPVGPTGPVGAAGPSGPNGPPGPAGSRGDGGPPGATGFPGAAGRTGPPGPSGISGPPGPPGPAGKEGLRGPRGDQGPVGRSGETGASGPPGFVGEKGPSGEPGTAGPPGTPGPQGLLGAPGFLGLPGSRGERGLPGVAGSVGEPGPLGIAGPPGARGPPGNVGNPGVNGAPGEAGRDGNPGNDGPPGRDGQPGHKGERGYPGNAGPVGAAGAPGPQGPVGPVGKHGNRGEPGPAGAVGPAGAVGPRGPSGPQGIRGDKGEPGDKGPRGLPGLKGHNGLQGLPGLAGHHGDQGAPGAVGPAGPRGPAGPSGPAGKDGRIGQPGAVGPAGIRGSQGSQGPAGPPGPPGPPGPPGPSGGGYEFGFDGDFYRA

B1: Recombinant bovine opticin (natural protein)
chain: ASLSEEREGDPYAILHLGDYVLSLDNYDEVIDPSNYDELIDYGDQLPQVKGTSLASLTRTRFTQSTEAARTLPSNPTTARPPTLGLLAAPANHGLPTCLICVCLGSSVYCDDADLENIPPLPQTTAYLYARFNRISHIRAGDFKGLTKLKRIDLSGNSISSIDDKALRLLPALRDLILPENKLVALPTLPTSIEVLDVRMNRLQSSGIQPEAFRALEKLQFLYLADNLLDAIPPSLPLSLRSLHLQNNMIETMQRDAFCDAEEHRHTRRPLEDIRLDGNPINLSLFPSAYFCLPRLPTGRFV
- Kd (Collagen type I): 60 nM
- Kd [1]: 40 nM
